According to the Human Domainome abundance scans (Beltran et al. 2025):

B1: Steroid hormone receptor ERR2, residues 100 to 176; numbered along this chain, O95718 (parent)
chain: KRLCLVCGDIASGYHYGVASCEACKAFFKRTIQGNIEYSCPATNECEITKRRRKSCQACRFMKCLKVGMLKEGVRLD

Variants of: B1
Assay: abundance fitness (aPCA) (normalised: wild type 0, dead -1); higher = more abundant; growth selection in yeast, the domain comes from the species named
Settings: Homo sapiens

Abundance fitness of substitutions, site by site:
R60: A -0.031; T 0.051; F 0.211; C 0.013; I -0.23; K 0.177; H 0.254
C64: I -0.478; D -1.05; A -0.301; W -0.531; N -0.483; F -0.686; L -0.826; R -0.751; G -0.582; K -0.767; P -0.747; T -0.658; S -0.396; H -1.04; V -0.836; E -0.561; M -0.273; Y -0.95
S55: N 0.405; H 0.351; K 0.149; W 0.263; Y 0.206; D 0.318; T 0.277; I 0.344; P 0.257; G 0.336; C 0.393; A 0.278; L 0.341; R 0.22; M 0.374
K66: L -0.436; P -1.27; G -0.256; H -0.168; F -0.585; M 0.074; C -0.354; S -0.011; Q -0.03; E -0.073; D -0.103; R -0.019
M62: V -0.006; A 0.013; E 0.086; D -0.057; W -0.136; G -0.059; Q 0.04; H -0.496; I -0.148; T 0.106; K 0.141; C -1.07; P -1.05; L -0.135; R -0.026; S 0.148
K54: A 0.009; I 0.073; R 0.008; E 0.129; G 0.155; F -0.243; H 0.144; D 0.092; Q 0.195; L 0.005; C -0.351; V 0.007; N 0.175; W -0.05; Y 0.091; T -0.024
L65: R -0.459; T -0.516; Y -0.456; H -0.797; D -0.548; Q -0.102; A -0.256; I -0.289; V -0.082; N -0.813; G -0.534; F -0.433; E -0.132; M -0.175; S -0.442; K -0.466; W -0.697; P -0.753
R53: W -0.084; T 0.063; A 0.005; C -0.103; L 0.074; Y -0.14; D 0.026; G 0.049; M 0.107; P -0.069; K 0.015; E 0.073; S -0.114; F 0.065; N 0.027; V -0.008; Q 0.096
I48: A -0.157; N 0.266; T -0.159; G -0.191; C -0.312; W -0.227; M -0.166; F -0.298; P -0.242; R -0.518; V 0.007; S -0.108
K63: T -0.226; M -0.11; N -0.605; C -0.242; V -0.522; Q -0.21; R -0.145; D -0.783; G -0.534; P -0.914; A -0.233; I -0.461; S -0.611; E -0.596; Y -0.982; H -0.359; L -0.55; W -0.58; F -0.931
Q57: H -0.347; P -0.066; R -0.17; M -0.221; G 0.122; D -0.042; K -0.118; C -0.152; A -0.018; L -0.232; F -0.243; S -0.125; I -0.633; W -0.15; T -0.325; N -0.246; V -0.213
